Consider one molecule from paper PMC10699557, “A recombinant approach for stapled peptide discovery yields inhibitors of the RAD51 recombinase†” (Chemical Science, 2023).

Bridge positions count the residues as written; N and C are the ends. Ends that are not written are not given here. DVT = divinyltriazine staple linking the two cysteines

As a reminder, the Kd is a measure of binding affinity in units of concentration.

The target of the experiment is HumRadA22. As to the kind of experiment: fluorescence polarisation; competition: displacement of a fluorescently-labelled BRC4 repeat from HumRadA22; KD calculated from IC50; single titrations with three technical replicates at each point; mock (linear) samples with 500 uM TCEP. To be noted: both partners purified.

Turning to VNSSAFSGFCTASGKKLNVSCEALQKAVKLFSDIENIS (linker 10-21 via DVT (inferred); also: His8 tag in name not shown in chain) [GB1-SP7-His8, stapled with DVT], the Kd is 149 nM.
